Test results from IntAct's records for PubMed 17947231.

B1: Calvin cycle protein CP12-2, chloroplastic (Arabidopsis thaliana (Mouse-ear cress)), Q9LZP9 (parent)
chain: MATIATGLNIATQRVFVTSENRPVCLAGPVHLNNSWNLGSRTTNRMMKLQPIKAAPEGGISDVVEKSIKEAQETCAGDPVSGECVAAWDEVEELSAAASHARDKKKADGSDPLEEYCKDNPETNECRTYDN
partner: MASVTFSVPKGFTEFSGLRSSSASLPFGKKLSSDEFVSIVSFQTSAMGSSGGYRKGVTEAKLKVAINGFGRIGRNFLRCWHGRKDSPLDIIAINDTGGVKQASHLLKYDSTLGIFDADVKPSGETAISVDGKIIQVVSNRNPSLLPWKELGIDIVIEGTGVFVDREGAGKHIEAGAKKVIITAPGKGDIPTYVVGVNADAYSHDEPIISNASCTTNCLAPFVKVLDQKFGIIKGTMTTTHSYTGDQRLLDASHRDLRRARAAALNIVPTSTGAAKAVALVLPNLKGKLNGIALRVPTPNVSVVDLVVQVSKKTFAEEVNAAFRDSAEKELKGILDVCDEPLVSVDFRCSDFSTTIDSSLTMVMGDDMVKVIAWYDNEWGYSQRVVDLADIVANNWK

Variants of: B1
Details: with GAPA1, P25856

effect of a mutation on the interaction | Variant
disrupting interaction | MATIATGLNIATQRVFVTSENRPVCLAGPVHLNNSWNLGSRTTNRMMKLQPIKAAPEGGISDVVEKSIKEAQETCAGDPVSGECVAAWDEVEELSAAASHARDKKKADGSDPLEEYCKDNPETNESRTYDN [C126S]
